# According to patent US10245299B2, “Autoassembling peptides for the treatment of pulmonary bulla” (3-D MATRIX, LTD., priority 2014, dated 2019):
# Columns and labels:
# Format in all cases: physicochemical
# [1] = Appearance of 1.5% peptide solutions with various salts at room temperature; conditions: for Appearance: room temperature
# Method: The effect of salt ionic strength level on the properties of peptide solutions was evaluated to identify optimized salt ionic strength levels for the peptides as described herein. Increasing the salt ionic strength level of PuraMatrix® and other peptides may generally improve its function and mechanical strength for various clinical applications. To adjust the salt ionic strength of the peptide solutions by way of example, various salt buffer solutions including NaCl, KCl, MgCl2, CaCl2 and DPBS (10×) were added to 2 mL of 1.5% peptide solutions.
# [2] = Rheological properties of pH adjusted peptide solutions and hydrogels; conditions: KLD12 1%, IEIK13 1%, PuraMatrix® 1% and 2.5%
# Method: Based on the visual observation of the effect of pH level on the properties of the peptide solutions, the effect on the rheological properties of the peptide solutions after adjusting their pH level to 3.4 (PuraMatrix® and KLD12) or 3.7 (IEIK13) was evaluated. If the pH levels of peptide solutions are higher than 3.5 (PuraMatrix® and KLD12) or 3.7 (IEIK13), the peptide solution began phase separation becoming cloudy. The rheological properties of PuraMatrix®, KLD12 and IEIK13 solutions were higher at pH 3.4. The results are shown in FIG. 2 for KLD12 1%, FIG. 3 for IEIK13 1%, and FIGS. 4-5 for PuraMatrix® 1% and 2.5%, respectively. Stress sweep tests were performed at 10 rad/s. Frequency sweep tests were performed at 1 Pa.
# Based on the results of the effect on the rheological properties of the peptide solutions after adjusting their pH level to 3.4 (PuraMatrix® and KLD12) or 3.7 (IEIK13), the effect on the rheological properties of the peptide solutions at various pH levels was evaluated. […] The rheological properties of peptides were evaluated at various concentrations using a rheometer (DHR-1, TA Instruments) with 20 mm plates. The results are shown in FIG. 6A for PuraMatrix® 2.5% solution and FIG. 6B for IEIK13 1.5% solution, respectively. Frequency sweep tests were performed from 1 rad/sec to 10 rad/sec at 1 Pa and the storage modulus at 1 rad/sec was selected for data.
# Based on the results of the effect on the rheological properties of the peptide solutions after adjusting their pH level, the effect on the rheological properties of the peptide hydrogels at various pH after DMEM treatment was evaluated and compared to the effect on the rheological properties of the peptide solutions at various pH before DMEM treatment. […] The results are shown in FIGS. 7A-7B for PuraMatrix® and FIGS. 8A-8B for IEIK (SEQ ID NO: 5), respectively. Frequency sweep tests were performed from 1 rad/sec to 10 rad/sec at 1 Pa and the storage modulus at 1 rad/sec was selected for data.
# [3] = Gelation of peptide solutions after saline buffer treatment, time sweep; conditions: saline buffer (0.15 M of NaCl); IEIK13 1.5%, KLD12 1.5%, PuraMatrix® 2.5% solution
# Method: The effect of salt ionic strength level surrounding peptide solution on the properties of peptide solutions was evaluated to identify the possibility of peptide gelation when the peptide solution is placed into the environment where salt ionic strength level is high. […] Without pH effect, the effect of saline treatment on gelation of peptide solutions were evaluated. […] This is because IEIK13 is much more sensitive to salt ionic strength levels. Fast gelation of IEIK13 at the salt ionic strength level similar to body fluid isotonic salt level may generally improve its function and gelation speed for various clinical applications. The results are shown in FIG. 19 for IEIK13, KLD12 and PuraMatrix® solutions. Time sweep tests were performed at 1 rad/sec and at 1 Pa with 20 mm plates and 500 μm gap distance. […]
substance,measurement,setting,value
Arg-Ala-Asp-Ala-Arg-Ala-Asp-Ala-Arg-Ala-Asp-Ala-Arg-Ala-Asp-Ala [PuraMatrix®],Appearance,"[1]; PuraMatrix ® 0.5%, DPBS (pH 3.2) 1.0 M, ionic strength 1.0 M","Cloudy, phase-separated"
same,Appearance,"[1]; PuraMatrix ® 0.55%, DPBS (pH 3.2) 0.95 M, ionic strength 0.95 M","Slightly cloudy, brittle gel"
same,Appearance,"[1]; PuraMatrix ® 0.6%, DPBS (pH 3.2) 0.9 M, ionic strength 0.9 M","Clear, thick, stiffer gel"
same,Appearance,"[1]; PuraMatrix ® 0.75%, DPBS (pH 3.2) 0.75 M, ionic strength 0.75 M","Clear, thick, stiffer gel"
same,Appearance,"[1]; PuraMatrix ® 0.9%, DPBS (pH 3.2) 0.6 M, ionic strength 0.6 M","Clear, thick, stiffer gel"
same,Appearance,"[1]; PuraMatrix ® 0.93%, KCl 1.15 M, ionic strength 1.15 M","Cloudy, phase-separated"
same,Appearance,"[1]; PuraMatrix ® 0.95%, KCl 1.1 M, ionic strength 1.1 M","Slightly cloudy, brittle gel"
same,Appearance,"[1]; PuraMatrix ® 0.98%, KCl 1.05 M, ionic strength 1.05 M","Slightly cloudy, thick, stiffer gel"
same,Appearance,"[1]; PuraMatrix ® 1.0%, KCl 1.0 M, ionic strength 1.0 M","Clear, thick, stiffer gel"
same,Appearance,"[1]; PuraMatrix ® 1.0%, NaCl 1.0 M, ionic strength 1.0 M","Cloudy, phase-separated"
same,Appearance,"[1]; PuraMatrix ® 1.03%, KCl 0.95 M, ionic strength 0.95 M","Clear, thick, stiffer gel"
same,Appearance,"[1]; PuraMatrix ® 1.03%, NaCl 0.95 M, ionic strength 0.95 M","Cloudy, phase-separated"
same,Appearance,"[1]; PuraMatrix ® 1.05%, DPBS (pH 3.2) 0.45 M, ionic strength 0.45 M","Clear, thick, stiffer gel"
same,Appearance,"[1]; PuraMatrix ® 1.05%, KCl 0.9 M, ionic strength 0.9 M","Clear, thick, stiffer gel"
same,Appearance,"[1]; PuraMatrix ® 1.05%, NaCl 0.9 M, ionic strength 0.9 M","Slightly cloudy, brittle gel"
same,Appearance,"[1]; PuraMatrix ® 1.08%, NaCl 0.85 M, ionic strength 0.85 M","Clear, thick, stiffer gel"
same,Appearance,"[1]; PuraMatrix ® 1.10%, NaCl 0.8 M, ionic strength 0.8 M","Clear, thick, stiffer gel"
same,Appearance,"[1]; PuraMatrix ® 1.13%, KCl 0.75 M, ionic strength 0.75 M","Clear, thick, stiffer gel"
same,Appearance,"[1]; PuraMatrix ® 1.13%, NaCl 0.75 M, ionic strength 0.75 M","Clear, thick, stiffer gel"
same,Appearance,"[1]; PuraMatrix ® 1.2%, DPBS (pH 3.2) 0.3 M, ionic strength 0.3 M","Clear, thick, stiffer gel"
same,Appearance,"[1]; PuraMatrix ® 1.2%, KCl 0.6 M, ionic strength 0.6 M","Clear, thick, stiffer gel"
same,Appearance,"[1]; PuraMatrix ® 1.2%, NaCl 0.6 M, ionic strength 0.6 M","Clear, thick, stiffer gel"
same,Appearance,"[1]; PuraMatrix ® 1.27%, KCl 0.45 M, ionic strength 0.45 M","Clear, thick, stiffer gel"
same,Appearance,"[1]; PuraMatrix ® 1.27%, NaCl 0.45 M, ionic strength 0.45 M","Clear, thick, stiffer gel"
same,Appearance,"[1]; PuraMatrix ® 1.28%, CaCl2 0.433 M, ionic strength 1.3 M","Cloudy, phase-separated"
same,Appearance,"[1]; PuraMatrix ® 1.28%, MgCl2 0.433 M, ionic strength 1.3 M","Cloudy, phase-separated"
same,Appearance,"[1]; PuraMatrix ® 1.29%, CaCl2 0.417 M, ionic strength 1.25 M","Slightly cloudy, brittle gel"
same,Appearance,"[1]; PuraMatrix ® 1.29%, MgCl2 0.417 M, ionic strength 1.25 M","Slightly cloudy, brittle gel"
same,Appearance,"[1]; PuraMatrix ® 1.3%, CaCl2 0.4 M, ionic strength 1.2 M","Slightly cloudy, thick, stiffer gel"
same,Appearance,"[1]; PuraMatrix ® 1.3%, MgCl2 0.4 M, ionic strength 1.2 M","Slightly cloudy, thick, stiffer gel"
same,Appearance,"[1]; PuraMatrix ® 1.31%, CaCl2 0.383 M, ionic strength 1.15 M","Clear, thick, stiffer gel"
same,Appearance,"[1]; PuraMatrix ® 1.31%, MgCl2 0.383 M, ionic strength 1.15 M","Clear, thick, stiffer gel"
same,Appearance,"[1]; PuraMatrix ® 1.32%, CaCl2 0.35 M, ionic strength 1.05 M","Clear, thick, stiffer gel"
same,Appearance,"[1]; PuraMatrix ® 1.32%, MgCl2 0.35 M, ionic strength 1.05 M","Clear, thick, stiffer gel"
same,Appearance,"[1]; PuraMatrix ® 1.35%, CaCl2 0.3 M, ionic strength 0.9 M","Clear, thick, stiffer gel"
same,Appearance,"[1]; PuraMatrix ® 1.35%, DPBS (pH 3.2) 0.15 M, ionic strength 0.15 M","Clear, thick, stiffer gel"
same,Appearance,"[1]; PuraMatrix ® 1.35%, KCl 0.3 M, ionic strength 0.3 M","Clear, thick, stiffer gel"
same,Appearance,"[1]; PuraMatrix ® 1.35%, MgCl2 0.3 M, ionic strength 0.9 M","Clear, thick, stiffer gel"
same,Appearance,"[1]; PuraMatrix ® 1.35%, NaCl 0.3 M, ionic strength 0.3 M","Clear, thick, stiffer gel"
same,Appearance,"[1]; PuraMatrix ® 1.38%, CaCl2 0.25 M, ionic strength 0.75 M","Clear, thick, stiffer gel"
same,Appearance,"[1]; PuraMatrix ® 1.38%, MgCl2 0.25 M, ionic strength 0.75 M","Clear, thick, stiffer gel"
same,Appearance,"[1]; PuraMatrix ® 1.4%, CaCl2 0.2 M, ionic strength 0.6 M","Clear, thick, stiffer gel"
same,Appearance,"[1]; PuraMatrix ® 1.4%, MgCl2 0.2 M, ionic strength 0.6 M","Clear, thick, stiffer gel"
same,Appearance,"[1]; PuraMatrix ® 1.43%, CaCl2 0.15 M, ionic strength 0.45 M","Clear, thick, stiffer gel"
same,Appearance,"[1]; PuraMatrix ® 1.43%, KCl 0.15 M, ionic strength 0.15 M","Clear, thick, stiffer gel"
same,Appearance,"[1]; PuraMatrix ® 1.43%, MgCl2 0.15 M, ionic strength 0.45 M","Clear, thick, stiffer gel"
same,Appearance,"[1]; PuraMatrix ® 1.43%, NaCl 0.15 M, ionic strength 0.15 M","Clear, thick, stiffer gel"
same,Appearance,"[1]; PuraMatrix ® 1.45%, CaCl2 0.1 M, ionic strength 0.3 M","Clear, thick, stiffer gel"
same,Appearance,"[1]; PuraMatrix ® 1.45%, MgCl2 0.1 M, ionic strength 0.3 M","Clear, thick, stiffer gel"
same,Appearance,"[1]; PuraMatrix ® 1.48%, CaCl2 0.05 M, ionic strength 0.15 M","Clear, thick, stiffer gel"
same,Appearance,"[1]; PuraMatrix ® 1.48%, MgCl2 0.05 M, ionic strength 0.15 M","Clear, thick, stiffer gel"
same,Appearance,"[1]; PuraMatrix ® 1.5%, CaCl2 0 M, ionic strength 0 M","Clear, thick gel"
same,Appearance,"[1]; PuraMatrix ® 1.5%, DPBS (pH 3.2) 0 M, ionic strength 0 M","Clear, thick gel"
same,Appearance,"[1]; PuraMatrix ® 1.5%, KCl 0 M, ionic strength 0 M","Clear, thick gel"
same,Appearance,"[1]; PuraMatrix ® 1.5%, MgCl2 0 M, ionic strength 0 M","Clear, thick gel"
same,Appearance,"[1]; PuraMatrix ® 1.5%, NaCl 0 M, ionic strength 0 M","Clear, thick gel"
same,salt ionic strength increase that did not change the clear color of the solution (apparent stiffness increased),"[1]; depending on different salts, 1.5% peptide solutions",0.85˜1.15 M
same,rheological properties of solutions at pH 3.4,[2],higher
same,gelation after saline buffer treatment,[3],no or negligible gelation
